Experimental data taken from US20250289897A1 (Eli Lilly, published 2025).

Target: T1, human LEPR-ECD-His (human, UniProt P48357 22-839)
T1 sequence: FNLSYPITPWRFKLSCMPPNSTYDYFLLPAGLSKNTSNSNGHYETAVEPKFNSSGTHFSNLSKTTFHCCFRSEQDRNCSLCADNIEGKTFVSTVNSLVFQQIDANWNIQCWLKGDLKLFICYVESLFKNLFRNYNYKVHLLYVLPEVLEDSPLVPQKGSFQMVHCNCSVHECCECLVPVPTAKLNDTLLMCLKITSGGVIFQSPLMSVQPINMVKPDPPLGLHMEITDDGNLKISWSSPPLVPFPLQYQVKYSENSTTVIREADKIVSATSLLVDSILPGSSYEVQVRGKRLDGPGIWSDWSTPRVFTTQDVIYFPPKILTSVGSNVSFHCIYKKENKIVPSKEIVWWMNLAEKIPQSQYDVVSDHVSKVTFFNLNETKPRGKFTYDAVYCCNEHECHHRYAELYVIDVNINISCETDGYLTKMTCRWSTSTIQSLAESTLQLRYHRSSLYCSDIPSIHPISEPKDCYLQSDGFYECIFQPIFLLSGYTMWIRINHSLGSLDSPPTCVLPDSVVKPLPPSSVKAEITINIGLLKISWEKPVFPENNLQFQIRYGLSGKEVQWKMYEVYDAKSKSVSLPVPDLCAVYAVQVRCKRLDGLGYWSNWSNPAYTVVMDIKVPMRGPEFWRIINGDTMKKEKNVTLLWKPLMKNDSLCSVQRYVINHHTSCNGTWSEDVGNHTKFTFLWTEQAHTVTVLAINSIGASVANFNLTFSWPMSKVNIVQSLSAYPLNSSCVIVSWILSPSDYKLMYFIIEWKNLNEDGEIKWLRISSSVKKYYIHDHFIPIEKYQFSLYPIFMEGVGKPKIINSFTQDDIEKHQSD
Assay: SPR (Biacore T200), antibody captured on Protein A/G chip, His-tagged LEPR-ECD as analyte, 1:1 fit; mean n=3, SD 2.2E-9
Experimental: His-tagged ECDs were expressed and purified for each species and used for affinity analysis. A Protein A/G chip (Xantec, Cat #PAGHC200M) was utilized in this experiment with HBS-EP +0.01% BSA as running buffer. Antibodies were diluted to 1 μg/mL in running buffer and captured to a single flow cell on the chip surface. Each species of LEPR-ECD was diluted to 1000 nM in running buffer followed by 2-fold serial dilution. Each ligand concentration was injected over all flow cells at 100 L/min for 150 seconds followed by a 600 second dissociation phase. Regeneration was performed by injecting 10 mM glycine pH1.5 for 30 seconds at 10 μL/min. Data were analyzed in Biacore T200 Evaluation Software 3.1 by flow-cell 1 reference subtraction along with 0 nM blank subtraction. Data were fit globally using a “1:1 Binding” binding model to determine the on-rate (kₐ) and off-rate (kd) for each ligand. The affinity (KD) was calculated from the binding kinetics according to the relationship KD=kₐ/kd. Data reported as mean±standard deviation of experimental replicates.

Kd: 20 nM
B1: Antibody A (antibody, human IgG1, kappa, L234A L235A)
heavy: EVQLLESGGGLVQPGGSLRLSCAASGFTFSSFAMSWVRQAPGKGLEWVSAISGSGGSTYSADSVRGRFTISRDNSKNTLYLQMNSLRAEDTAVYYCAKDQGDWDFLFDYWGQGTLVTVSSASTKGPSVFPLAPSSKSTSGGTAALGCLVKDYFPEPVTVSWNSGALTSGVHTFPAVLQSSGLYSLSSVVTVPSSSLGTQTYICNVNHKPSNTKVDKRVEPKSCDKTHTCPPCPAPEAAGGPSVFLFPPKPKDTLYITREPEVTCVVVSVSHEDPEVKFNWYVDGVEVHNAKTKPREEQYNSTYRVVSVLTVLHQDWLNGKEYKCKVSNKALPAPIEKTISKAKGQPREPQVYTLPPSREEMTKNQVSLTCLVKGFYPSDIAVEWESNGQPENNYKTTPPVLDSDGSFFLYSKLTVDKSRWQQGNVFSCSVMHEALHNHYTQKSLSLSPGK
light: DIQMTQSPSFLSASVGDRVTITCRASQGISSSLAWYQQKPGKAPKLLIYTASTLQSGVPSRFSGSGSGTEFTLTISSLQPEDFATYYCQQLIYYPFTFGQGTKVEIKRTVAAPSVFIFPPSDEQLKSGTASVVCLLNNFYPREAKVQWKVDNALQSGNSQESVTEQDSKDSTYSLSSTLTLSKADYEKHKVYACEVTHQGLSSPVTKSFNRGEC
notes: IgG1 mAb
